For assay [1], the target named is T1, extracellularly exposed KRS N-terminal region (Homo sapiens, UniProt Q15046, T52D).
T1 construct: expressed in transfected cells; host or cells: A549
The experiment in a line: Immunofluorescence staining of converted IgGs. The note with it: T52D-KRS (active mutant, myc tagged KRS). In kind it is cell-based. The method, then: (§1) Immunofluorescence was performed to investigate whether the scFv clones selected in Example <1-5> actually bound to the KRS N-terminal region exposed on the cell membrane. In order to make a phenomenon in which KRS is exposed on the membrane, KRS-T52D mutant (active mutant) was used. […] After incubation for 24 h, the cells were incubated using serum-free media (RPMI 1640 media) at 37° C. for 1 h. Thereafter, the cells were treated with 10 μg/ml laminin (L2020; Sigma) and then incubated at 37° C. for 1 h.
(§2) The prepared samples were washed with PBS (4° C.), fixed by the treatment with 4% paraformaldehyde for 10 min, and then washed. The samples were blocked with CAS block for 10 min, and treated with the scFv and Myc antibodies for 2 h. Thereafter, the unbound antibodies were washed out, and incubated with secondary antibodies for 1 h in a dark room. DAPI staining was performed for 10 min before mounting.
(§3) To investigate whether the IgGs constructed in the present invention actually bound to the region of KRS exposed on the cell membrane, immunofluorescence was performed. Immunofluorescence staining was performed by the same method as described in Example <1-6> by using N3 IgG and N5 IgG as representatives.

The target of assay [2] is T2, extracellularly exposed KRS N-terminal region (Homo sapiens, UniProt Q15046).
T2 construct: expressed in transfected cells; host or cells: A549
T2 sequence (Q15046 whole entry): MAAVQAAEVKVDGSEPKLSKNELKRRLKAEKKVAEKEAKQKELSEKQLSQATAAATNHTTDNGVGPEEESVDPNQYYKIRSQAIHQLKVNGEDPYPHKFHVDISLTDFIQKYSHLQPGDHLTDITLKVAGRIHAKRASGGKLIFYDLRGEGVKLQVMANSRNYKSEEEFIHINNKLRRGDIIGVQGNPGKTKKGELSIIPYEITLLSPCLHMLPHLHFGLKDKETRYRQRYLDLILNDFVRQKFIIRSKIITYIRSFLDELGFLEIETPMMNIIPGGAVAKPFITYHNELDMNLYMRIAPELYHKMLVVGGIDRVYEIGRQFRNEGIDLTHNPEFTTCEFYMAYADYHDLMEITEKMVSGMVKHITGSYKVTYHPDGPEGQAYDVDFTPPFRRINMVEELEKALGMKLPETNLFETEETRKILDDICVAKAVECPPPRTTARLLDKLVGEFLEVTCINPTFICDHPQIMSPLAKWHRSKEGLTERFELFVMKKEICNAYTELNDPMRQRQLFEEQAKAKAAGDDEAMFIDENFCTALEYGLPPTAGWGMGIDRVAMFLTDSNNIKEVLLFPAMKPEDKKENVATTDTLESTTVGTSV
The experiment in a line: Immunofluorescence staining of converted IgGs. In kind it is cell-based. Particulars: WT-KRS membrane localization induced by laminin treatment. The method, then: as §1, §2, §3

Assay [3] concerns mouse KRS N-terminal peptide fragments (mF1-mF5). The experiment in a line: SPR (Biacore T200) of immobilized N3 IgG against mouse KRS N-terminal peptide fragments. The format is binding. The method, then:
In the same manner as the experimental method described in Example 4-1 above, N3 IgG antibody was immobilized on the chip by using an amine coupling kit (GE Healthcare). Then, the peptides shown in Table 4 above dissolved in PBS solution at corresponding concentrations were allowed to flow for 60 s, and PBS was allowed to flow for 5 min. Then, the binding ability was analyzed by Biacore T200 Evaluation software v2.0 (GE Healthcare).
(In general: SPR reads the build-up and loss of mass on a sensor chip optically.)

Assay [4] concerns pulmonary arterial hypertension (PAH) models. The assay is described as follows: Blood pressure and cardiac output in monocrotaline PAH model. In kind it is in vivo, rat. Particulars: for CO / LVEDP / LVESP / RVEDP / RVESP: i.v. twice a week, 3 weeks, n = 5. The method, then:
After three weeks, the rats were anesthetized with isoflurane, and measured for blood flow and pressure by using a high-precision pneumatic measurement system (MPVS cardiovascular pressure and volume system, model name: MPVS Ultra, manufacturer: Millar Instruments). The right ventricular end-systolic pressure (RVESP), right ventricular end-diastolic pressure, left ventricular end-systolic pressure, left ventricular end-diastolic pressure were measured using an exclusive catheter (Mikro-Tip rat pressure catheter, manufacturer: Millar Instruments). The cardiac output was measured using a perivascular blood flow probe (Transonic Flow probes, manufacturer: Millar Instruments), and experimental method thereof was performed by the same method as disclosed in the following literature: Pacher P, Nagayama T, Mukhopadhyay P, Batkai S, Kass D A. Measurement of cardiac function using pressure-volume conductance catheter technique in mice and rats. Nat Protoc 2008; 3(9):1422-34.
The models of PAH, which is a disease having a close relation between immune cell invasion and pathological phenomena, were treated with N3 IgG antibody (1 mpk or 10 mpk) for 3 weeks (i.v., twice a week), and then measured for right ventricular end-systolic pressure (RVESP), right ventricular end-diastolic pressure (RVEDP), left ventricular end-systolic pressure (LVESP), left ventricular end-diastolic pressure (LVEDP), and cardiac output (CO).

Assay [5] has as its system KRS level in the monocyte/macrophage cell membrane (RAW 264.7 cells). The experiment in a line: Western blotting of KRS in membrane and cytosol fractions after LN421 treatment. Particulars: 100 nM, 24 h, laminin 421 1 μg/ml. In kind it is cell-based. The method, then: RAW 264.7 cells (2×10^6 cell) were incubated for 18 hr, treated with 1 μg/ml of each laminin subtype in serum-free DMEM, and then harvested at 0 h, 12 h, and 24 h. RAW 264.7 cell protein was separated into cytosol and membrane fractions by using the ProteoExtract Subcellular Proteome Extraction Kit (Calbiotech, cat #539790). The obtained protein was electrophoresed, transferred onto PVDF membrane (Milipore), and blocked with 3% skim milk. Thereafter, KRS polyclonal antibody (rabbit, Neomics, Co. Ltd. #NMS-01-0005) was added, followed by incubation for 1 h. After the unbound antibodies were washed out, anti-rabbit secondary antibodies (ThermoFisher Scientific, #31460) were added, followed by incubation. After incubation with the secondary antibodies, film sensitization was carried out using ECL reagent as a substrate in a dark room. The sensitized bands were compared with standard molecule markers to identify bands corresponding to KRS sizes. Na+/K+ ATPase (Abcam) and tubulin (Sigma) antibody were used for plasma membrane and cytosol marker identification, respectively. RAW 264.7 cells were treated with laminin 421 (1 μg/ml) and antibody (100 nM), incubated for 24 h, and harvested. […]

The target of assay [6] is T3, KRS (Homo sapiens, UniProt Q15046).
T3 construct: endogenous in cells; host or cells: HCT116
T3 sequence (Q15046 whole entry): as above
The experiment in a line: Western blotting and immunoprecipitation of converted IgGs. In kind it is binding. Particulars: HCT116 cell lysate.

For assay [7], the system named is RAW 264.7 cells. The experiment in a line: Transwell migration assay of monocytes/macrophages with laminin 421. The format is cell-based. Particulars: 100 nM, 24 h, laminin 421 1 μg/ml. The method, then:
The effect on immune cell migration and invasion was investigated using N3 IgG antibody as a representative among the antibodies constructed in Example 1 above. Specific experimental methods were as follows. Transwell (Corning, #3421-5 mm) was coated with gelatin (0.5 mg/ml), and then RAW 264.7 cells (1×10^5 cells/well) were seeded in the top chamber. Serum-free DMEM (500 μl) containing laminin 421 (1 μg/ml) was placed in the bottom chamber. The top chamber was treated with each antibody at 100 nM. After 24 h, immobilization with 70% methanol was carried out for 30 min, and then staining with 50% hematoxylin was carried out for 30 min. The non-migrating cells present on the upper part of the membrane were removed by cotton swabs, and then the membrane was taken and mounted on the slide. The migrating cells present on the bottom surface of the membrane were observed by a high-resolution microscope (FIG. 20A), and the cells were counted on the obtained images and plotted on the graph (FIG. 20B).

T1 sequence (Q15046 whole entry T52D): as the sequence (Q15046 whole entry) above, with T52D counted along it

B1: N3 IgG: IgG converted from N3 scFv; VH SEQ ID NO: 49, VL SEQ ID NO: 51; binds KRS N-terminal region (antibody, V domains shown)
VH: EVQLLESGGGLVQPGGSLRLSCAASGFTFSSYDMSWVRQAPGKGLEWVSAISYDNGNTYYADSVKGRFTISRDNSKNTLYLQMNSLRAEDTAVYYSARMALDFDYWGQGTLVTVSS
VL: QSVLTQPPSASGTPGQRVTISCTGSSSNIGSNYVTWYQQLPGTAPKLLIYDNSNRPSGVPDRFSGSKSGTSASLAISGLRSEDEADYYCASWDDSLSAYVFGGGTKLTVL
Turning to B1, the “binding to extracellularly exposed KRS N-terminal region (immunofluorescence)” value in assay [1] is “favorably bound”. Also, the “binding to extracellularly exposed KRS N-terminal region (immunofluorescence)” value in assay [2] is on record as “favorably bound specifically”. For the same molecule, the “relative binding ability, epitope F3 vs F1 (mouse)” value in assay [3] is reported as “stronger binding ability to epitope F3 than F1”. Further, the “binding to mouse KRS N-terminal epitopes F1-F5 (SPR)” value in assay [3] (F2 and F4 data not shown) was “bound to epitopes F1, F2, F3, and F4 of human (h), mouse (m), and rat (r) but not epitope F5”. Besides, the “change in RVESP” value in assay [4] (1 mpk and 10 mpk, PAH models) is “significantly reduced”. Besides, in assay [4] (MCT + N3 Ab 1 mpk), the CO was 74.0 ± 0.9 mL/min, the LVEDP came to 2.6 ± 1.9 mmHg, the LVESP is recorded as 95.8 ± 4.8 mmHg and the RVEDP was 1.4 ± 2.2 mmHg. Besides, the RVESP in assay [4] (MCT + N3 Ab 1 mpk) was determined as 45.0 ± 8.1 mmHg. Also, in assay [4] (MCT + N3 Ab 10 mpk), the CO turned out to be 59.8 ± 12.9 mL/min, the LVEDP worked out at 4.6 ± 3.9 mmHg, the LVESP came out at 93.4 ± 11.3 mmHg and the RVEDP came to 3.8 ± 1.3 mmHg. Besides, the RVESP in assay [4] (MCT + N3 Ab 10 mpk) amounted to 41.2 ± 7.7 mmHg. Further, in assay [4] (PAH models, antibody administered group), the “change in LVESP” value is given as “significantly increased”. For the same molecule, the “KRS level in the cell membrane” value in assay [5] is reported as “effectively reduced”. Besides, the “KRS binding ability (western blotting and immunoprecipitation)” value in assay [6] is “bound to KRS”. The “inhibition of LN421-dependent monocyte/macrophage migration” value in assay [7] was “effectively inhibited”.

Source of the values: US11685791B2, “Antibody binding specifically to N-terminal region of lysyl-tRNA synthetase exposed on cell membrane” (Zymedi Co., Ltd., priority 2017, dated 2023).
